Measured values from patent US11994512B2, “Single-cell genomic methods to generate ex vivo cell systems that recapitulate in vivo biology with improved fidelity” (Massachusetts Institute of Technology, priority 2018, dated 2024).

B1: Q8VCI0 (protein, UniProt Q8VCI0 1-550, looked up)
chain: MCHRSPGRSLRPPSPLLLLLPLLLQPPWAAGAASQSDPTGVHCATAYWSPESKKVEIKTVLDKNGDAYGYYNDSIKTTGWGILEIRAGYGSQVLSNEIIMFLAGYLEGYLTALHMYDHFTNLYPQLIKNPSIVKKVQDFMEKQEMWTRQNIKAQKDDPFWRHTGYVVTQLDGLYLGAQKRASEEKIKPMTMFQIQFLNAVGDLLDLIPSLSPTKSSSMMKFKIWEMGHCSALIKVLPGFENIYFAHSSWYTYAAMLRIYKHWDFNIKDKYTLSKRLSFSSYPGFLESLDDFYILSSGLILLQTTNSVYNKTLLKQVVPKTLLAWQRVRVANMMAEGGKEWAQIFSKHNSGTYNNQYMVLDLKKVTINRSLDKGTLYIVEQIPTYVEYSDQTNVLRKGYWASYNIPFHKTIYNWSGYPLLVHKLGLDYSYDLAPRAKIFRRDQGNVTDMASMKYIMRYNNYKEDPYSKGDPCSTICCREDLNGASPSPGGCYDTKVADIFLASQYKAYAISGPTVQDGLPPFNWNRFNETLHRGMPEVFDFNFVTMKPILS
modifications: full-length
B2: Q8VHC3 (protein, UniProt Q8VHC3 1-145, looked up)
chain: MSILLSPPSLLLLLAALVAPATSTTNYRPDWNRLRGLARGRVETCGGUQLNRLKEVKAFVTEDIQLYHNLVMKHLPGADPELVLLSRNYQELERIPLSQMTRDEINALVQELGFYRKSAPEAQVPPEYLWAPAKPPEEASEHDDL
modifications: full-length
B3: Q8VCT4 (protein, UniProt Q8VCT4 1-565, looked up)
chain: MGLYPLIWLSLAACTAWGYPSSPPVVNTVKGKVLGKYVNLEGFTQPVAVFLGVPFAKPPLGSLRFAPPQPAEPWSFVKNTTSYPPMCSQDAVGGQVLSELFTNRKENIPLQFSEDCLYLNIYTPADLTKNSRLPVMVWIHGGGLVVGGASTYDGLALSAHENVVVVTIQYRLGIWGFFSTGDEHSRGNWGHLDQVAALRWVQDNIANFGGNPGSVTIFGESAGGFSVSVLVLSPLAKNLFHRAISESGVSLTAALITTDVKPIAGLVATLSGCKTTTSAVMVHCLRQKTEDELLETSLKLNLFKLDLLGNPKESYPFLPTVIDGVVLPKAPEEILAEKSFSTVPYIVGINKQEFGWIIPTLMGYPLAEGKLDQKTANSLLWKSYPTLKISENMIPVVAEKYLGGTDDLTKKKDLFQDLMADVVFGVPSVIVSRSHRDAGASTYMYEFEYRPSFVSAMRPKAVIGDHGDEIFSVFGSPFLKDGASEEETNLSKMVMKFWANFARNGNPNGGGLPHWPEYDQKEGYLKIGASTQAAQRLKDKEVSFWAELRAKESAQRPSHREHVEL
modifications: full-length
B4: Q8VEE1 (protein, UniProt Q8VEE1 1-365, looked up)
chain: MAKVAKDLNPGVQKMSLGQQQSARGVACLRCKGMCSGFEPHSWRKICKSCKCSQEEHCLSSDLDDDRKIGRLLMDSKYATLTARVKGGDGIRIYKRNRMIMTNPIATGKDPTFDTITYEWAPPGVTQKLGLQYMELIPKERQPVTGTEGALYRRRQLMHQLPIYDQDPSRCRGLVENELKAMEEFVKHYKSEALGVGEVALPGQGGLPKEENKTQEKPEGTETTAPTTNGSLGDPSKEVEYVCELCKGAAPVDSPVVYADRAGYSKQWHPTCFQCIKCSEPLVDLIYFWKDGAPWCGRHYCESVRPRCSGCDEIIFSEDYQRVEDLAWHRKHFICEGCEQLLSGRAYIVTKGQLLCPTCSKSKRS
modifications: full-length
B5: Q8VE33 (protein, UniProt Q8VE33 1-370, looked up)
chain: MATPNNLTPTNCSWWPISALESDAAKPVETPDAPEASSPAHWPKESLVLYHWTQSFSSQKRLQVRLVIAEKGLACEERDVSLPQSEHKEPWFMRLNLGEEVPVIIHRDNIISDYDQIIDYVERTFTGEHVVALMPEAGSPQHARVLQYRELLDALPMDAYTHGCILHPELTTDSMIPKYATAEIRRHLANATTDLMKLDHEEEPQLSEPYLSKQKKLMAKILEHDDVSYLKKILGELAMVLDQIEAELEKRKLENEGQTCELWLCGCAFTLADVLLGATLHRLKFLGLSKKYWEDGSRPNLQSFFERVQRRFAFRKVLGDIHTTLLSAVIPNAFRLVKRKPPSFFGASFLMGSLGGMGYFAYWYLKKKYI
modifications: full-length
B6: Q8R550 (protein, UniProt Q8R550 1-709, looked up)
chain: MVEAIVEFDYQAQHDDELTISVGEVITNIRKEDGGWWEGQINGRRGLFPDNFVREIKKDMKKDLLSNKAPEKPMHDVSSGNALLSSETILRTNKRGERRRRRCQVAFSYLPQNDDELELKVGDIIEVVGEVEEGWWEGVLNGKTGMFPSNFIKELSGESDELGISQDEQLSKSRPEGFLPASLLPFPAHGAKGKTTFEGTILYRAAPGKTEGHRRYYSLRETTGSESDGGDSSSTKSEGANGTMATAAIQPKKVKGVGFGDIFKDKPIKLRPRSIEVENDFLPVEKTIGKKLPPATSTPDPSKTEMDSRTKTKDYCKVIFPYEAQNDDELTIKEGDIVTLINKDCIDVGWWEGELNGRRGVFPDNFVKLLPSDFDKEGNRPKKPPPPSAPVVKQGAGTTERKHEIKKIPPERPETLPNRTEEKERPEREPKLDLQKPSVPAIPPKKPRPPKTNSLNRPGALPPRRPERPVGPLTHTRGDSPKIDLAGSALSGILDKDLSDRSNDIDLEGFDSVISSTEKLSHPTTSRPKATGRRPPSQSLTSSSLSSPDIFDSPSPEEDKEEHISLAHRGIDVSKKTSKTVTISQVSDNKTSLPPKPGTMAAASSGPASLSSVASSPMSSSLGTAGQRASSPSLFSTEGKPKMEPAVSSQAAIEELKMQVRELRTIIETMKDQQKREIKQLLSELDEEKKIRLRLQMEVNDIKKALQSK
modifications: full-length

Test system: intracellular proteome of ENR+CD and ENR organoids
Assay: LC-MS/MS TMT proteomics of ENR+CD versus ENR organoids
Format: cell-based, C57BL/6 mice
Conditions: for Average logFC: ENR+CD versus ENR organoids, sample pairs in aggregate (n=4, 2 technical replicates from two biological donors); for M1-1 Log2 Median Normalized / M1-2 Log2 Median Normalized / M2-1 Log2 Median Normalized / M2-2 Log2 Median Normalized: protein abundance ratio ENR+CD versus ENR organoids, LC-MS/MS TMT proteomics; for M1-1 Log2 Median Normalized: sample pair M1-1; for M1-2 Log2 Median Normalized: sample pair M1-2; for M2-1 Log2 Median Normalized: sample pair M2-1; for M2-2 Log2 Median Normalized: sample pair M2-2; for change: up = enriched in ENR+CD, down = enriched in ENR, FDR<0.05 and log fold change cut-off

| Molecule | Average logFC | M1-1 Log2 Median Normalized | M1-2 Log2 Median Normalized | M2-1 Log2 Median Normalized | M2-2 Log2 Median Normalized | change |
| --- | --- | --- | --- | --- | --- | --- |
| B1 | −1.188 | −1.187 | −1.193 | −1.4105 | −0.754 | down |
| B2 | 1.481 | 1.688 | 1.48 | 1.1495 | 1.521 | up |
| B3 | −1.924 | −1.923 | −1.965 | −2.3285 | −1.001 | down |
| B4 | −1.258 | −1.327 | −1.525 | −1.0345 | −1.145 | down |
| B5 | 1.453 | 2.102 | 0.932 | 1.1705 | 1.609 | up |
| B6 | 1.492 | 1.738 | 1.082 | 1.8435 | 1.303 | up |
